Data set [1] deals with patients with recurrent or residual cervical carcinoma. The settings on record: cited from earlier work.
In data set [2] the target is T1, HLA-A*6802 (human, UniProt P30375 25-308 (Gorilla gorilla entry), limits assumed).
T1 construct: purified HLA molecule; b2m and chain limits not described
T1 MHC heavy: not shown
The data set can be described thus: competitive inhibition assay, purified HLA.

For data set [3], the target named is T1, HLA-A*6802. In words: competitive binding assay, purified HLA.

For the molecule aKXVAAWTLKAAa-NH2 [PADRE], the responding patients in data set [1] (95% interval 10-65%) is 33%. Further, the safety result in data set [1] (immunocompromised cervical carcinoma patients) is “favorable safety profile”.
As a reminder, the IC50 is the concentration needed to halve the response being measured. In the case of VVLGVVFGI (native HER2/neu peptide) [Her2/neu.665], the IC50 with HLA-A*6802 [2] and with HLA-A*6802 [3] was 2000 nM each time.
In the data set with HLA-A*6802 [2], HLYQGCQVV (native HER2/neu peptide) [Her2/neu.48] yielded a half-maximal inhibitory concentration (IC50) of 1140 nM.

Values taken from US20140147490A1, “HLA CLASS I A2 TUMOR ASSOCIATED ANTIGEN PEPTIDES AND VACCINE COMPOSITIONS” (priority 2012, published 2014).
